# Test results reported in article PMC10850481, “Structural basis for the oligomerization-facilitated NLRP3 activation” (Nature Communications, 2024).
# B1: PYD-deleted human NLRP3 (NLRP3_(ΔPYD)), from the construct FLAG.6His.MBP.TEV.CfaC.NLRP3_130.K131F.M132N-1036 (domain or fragment, UniProt Q96P20 130-1036, looked up)
# chain: CFNKKDYRKKYRKYVRSRFQCIEDRNARLGESVSLNKRYTRLRLIKEHRSQQEREQELLAIGKTKTCESPVSPIKMELLFDPDDEHSEPVHTVVFQGAAGIGKTILARKMMLDWASGTLYQDRFDYLFYIHCREVSLVTQRSLGDLIMSCCPDPNPPIHKIVRKPSRILFLMDGFDELQGAFDEHIGPLCTDWQKAERGDILLSSLIRKKLLPEASLLITTRPVALEKLQHLLDHPRHVEILGFSEAKRKEYFFKYFSDEAQARAAFSLIQENEVLFTMCFIPLVCWIVCTGLKQQMESGKSLAQTSKTTTAVYVFFLSSLLQPRGGSQEHGLCAHLWGLCSLAADGIWNQKILFEESDLRNHGLQKADVSAFLRMNLFQKEVDCEKFYSFIHMTFQEFFAAMYYLLEEEKEGRTNVPGSRLKLPSRDVTVLLENYGKFEKGYLIFVVRFLFGLVNQERTSYLEKKLSCKISQQIRLELLKWIEVKAKAKKLQIQPSQLELFYCLYEMQEEDFVQRAMDYFPKIEINLSTRMDHMVSSFCIENCHRVESLSLGFLHNMPKEEEEEEKEGRHLDMVQCVLPSSSHAACSHGLVNSHLTSSFCRGLFSVLSTSQSLTELDLSDNSLGDPGMRVLCETLQHPGCNIRRLWLGRCGLSHECCFDISLVLSSNQKLVELDLSDNALGDFGIRLLCVGLKHLLCNLKKLWLVSCCLTSACCQDLASVLSTSHSLTRLYVGENALGDSGVAILCEKAKNPQCNLQKLGLVNSGLTSVCCSALSSVLSTNQNLTHLYLRGNTLGDKGIKLLCEGLLHPDCKLQVLELDNCNLTSHCCWDLSTLLTSSQSLRKLSLGNNDLGDLGVMMFCEVLKQQSCLLQNLGLSEMYFNYETKSALETLQEEKPELTVVFEPSW
# notes: human NLRP3 (UniProt Q96P20), residues 130-1036 (NACHT and LRR, PYD deleted) with K131F and M132N next to the CfaC intein fragment; The same protomer forms an octamer (with ATP, no MCC950), a hexamer (with ATP and MCC950) and a back-to-back dimer (with NEK7, ATP and MCC950); The second construct, MBP.TEV.NLRP3_130_1036, was used only for the ATPase and nanoDSF assays; also called …
# How the values were obtained:
# [1] = molecular target: the molecule itself; assay: cryo-EM structure; NLRP3_(ΔPYD) with ATP, without MCC950; applied to grids immediately after SEC (Superose 6, 25 mM HEPES pH 7.4, 0.4 M NaCl, 0.2% CHAPS, 0.2 mM TCEP); D2 symmetry imposed; open octamer
# [2] = molecular target: the molecule itself; assay: cryo-EM structure; NLRP3_(ΔPYD) with ATP, MCC950 (10 fold molar excess) and NEK7_(K63M/K64M) (2 fold molar excess); Superdex 200 peak fractions; C2 symmetry imposed; closed NEK7/NLRP3 dimer
# [3] = molecular target: the molecule itself; assay: cryo-EM structure; NLRP3_(ΔPYD) with ATP and MCC950; D3 symmetry imposed; closed hexamer, seen in the dataset without NEK7 and as one of two populations in the dataset with NEK7
# [4] = molecular target: B1; assay: cryo-EM structure; NLRP3_(ΔPYD) with ATP, MCC950 (10 fold molar excess) and NEK7_(K63M/K64M) (2 fold molar excess); Superdex 200 peak fractions; C2 symmetry imposed; closed NEK7/NLRP3 dimer; conditions: both partners purified
binding result [4],Binder,stoichiometry N [1],stoichiometry N [2],stoichiometry N [3]
,B1,8,2,6
binds,"human NEK7 with kinase mutations K63M/K64M (NEK7_(K63M/K64M)) (enzyme, human NEK7 (UniProt Q8TDX7) with kinase mutations K63M/K64M; also called NIMA-related kinase 7; 6His.SUMO.NEK7_(K63M/K64M); source: E. coli BL21(DE3), purified (HisPur Ni resin, Ulp1 cleavage, HisTrap flow-through, Superdex 200); not shown: His6, N-terminal, cleaved; SUMO, N-terminal, cleaved) not shown",,,
